Measurements published in article PMC8041205, “TcpC inhibits toll-like receptor signaling pathway by serving as an E3 ubiquitin ligase that promotes degradation of myeloid differentiation factor 88” (PLoS Pathogens, 2021).

What was measured:
[1] = biological target: T1, recombinant TcpC (Toll/interleukin-1 receptor domain-containing protein encoded by E. coli) (uropathogenic E. coli (UPEC), UniProt A0A0H2V8B5 1-307); test: ITC; 1 uM rTcpC in PBS in the titration pool, 0.1 uM UBE2D1 or rMyD88 in PBS in the sample pool; VP-ITC microcalorimeter; conditions: both partners purified
T1 construct: TcpC, TIR domain-containing virulence factor of uropathogenic E. coli; called 'the full length rTcpC protein'; predicted TIR domain 171-304 aa; Only the vector pET42a is named; Depending on the cloning sites it may also add an N-terminal GST and S-tag; CFT073 is surmised; also called rTcpC; rTcpC prototype; source: E. coli BL21DE3 transformed with pET42a-tcpc, purified, LPS-free

[2] = biological target: T1, recombinant TcpC (Toll/interleukin-1 …); test: SPR; 1 nM UBE2D1 cross-linked on an activated CM5 chip; 0.05-0.8 nM rTcpC in PBS flowed over; Biacore T200; conditions: both partners purified

B1: UBE2D1 (R&D) (enzyme)
chain: not shown
notes: UBE2D1 bought from R&D; No catalogue number is printed, so the species and construct of the bought protein are unknown; source: bought: R&D
Work on B1 yielded a Kd [1] of 763 nM and a Kd [2] of 17.2 nM.
